Measured values as given in article PMC12728182 (2025).

Columns and labels:
[1] = molecular target: T1, Human Rac1 (residues 1-177), GMPPNP-loaded (human, UniProt P63000 1-177); test: ITC; 35 °C, GMPPNP-loaded Rac1 (average)
[2] = molecular target: T1, Human Rac1 (residues 1-177), …; test: ITC; 15 °C, GMPPNP-loaded Rac1 (average)
[3] = molecular target: T1, Human Rac1 (residues 1-177), …; test: ITC; 15 °C
[4] = molecular target: T1, Human Rac1 (residues 1-177), …; test: ITC; 10 °C, GMPPNP-loaded Rac1 (average)

B1: POSH_(315-380), shorter construct of human POSH comprising MRE1 and MRE2 (domain or fragment)
chain: GHMWSQASQNRHSMEISPPVLISSSNPTAAARISELSGLSCSAPSQVHISTTGLIVTPPPSSPVTTGPSF
B1 showed a Kd [1] of 21.7 µM, a Kd [2] of 20.2 µM and a Kd [3] of 21.6 µM. It also gave a Kd [4] of 26.8 µM.
